Results reported in paper PMC8184810, “Light regulates stomatal development by modulating paracrine signaling from inner tissues”.
Residue numbers refer to the chain shown, from its start.

T1: MBP-HY5 (Arabidopsis thaliana, UniProt O24646 1-168)
T1 sequence: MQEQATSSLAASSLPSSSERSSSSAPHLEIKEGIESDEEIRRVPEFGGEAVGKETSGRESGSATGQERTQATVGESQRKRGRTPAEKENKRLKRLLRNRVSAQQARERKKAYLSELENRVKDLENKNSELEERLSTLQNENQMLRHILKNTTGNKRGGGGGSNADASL

B1: P2 (STOMAGEN promoter) (dsDNA)
DNA 1: TCCTCTGTATTTTCAAACTCTTATCTCTACGTGTGCACAAACCTCACCATTAGATGATAA
DNA 2: TTATCATCTAATGGTGAGGTTTGTGCACACGTAGAGATAAGAGTTTGAAAATACAGAGGA
B2: mP2 (Z-box mutated) (dsDNA)
DNA 1: B1 DNA 1 with T28A, C30A, G31A, T32A, G33A
DNA 2: B1 DNA 2 with C28T, A29T, C30T, G31T, A33T

Key:
[1] = biological target: T1, MBP-HY5; experiment: EMSA; EMSA: 20 fmol biotin probe, ~1 ug protein, 20 ul binding buffer (composition not given), on ice 1 h; pull-down: 10 mM Tris-HCl pH 7.5, 50 mM KCl, 5 mM MgCl2, 2.5% glycerol, 0.05% NP-40, 5 ug salmon sperm DNA, 10 ug BSA, 4 C 1 h; details: protein: recombinant; tags: N-terminal MBP (pETG-40A); chain copies: 2; blunt
[2] = biological target: T1, MBP-HY5; experiment: pull-down; 5 mM MgCl2; salmon sperm DNA; EMSA: 20 fmol biotin probe, ~1 ug protein, 20 ul binding buffer (composition not given), on ice 1 h; pull-down: 10 mM Tris-HCl pH 7.5, 50 mM KCl, 5 mM MgCl2, 2.5% glycerol, 0.05% NP-40, 5 ug salmon sperm DNA, 10 ug BSA, 4 C 1 h; details: protein: recombinant; tags: N-terminal MBP (pETG-40A); chain copies: 2; blunt

Row | Binder | binding result [1] | binding result [2]
1 | B1 | binds | 
2 | B2 |  | no binding
